B1: NS3 helicase (NS3h), wild type, hepatitis C virus (protein)
chain: AVDFVPVESMETTMRSPVFTDNSSPPAVPQTFQVAHLHAPTGSGKSTKVPAAYAAQGYKVLVLNPSVAATLGFGAYMSKAHGIDPNIRTGVRTITTGAPITYSTYGKFLADGGCSGGAYDIIICDECHSTDSTTILGIGTVLDQAETAGARLVVLATATPPGSVTVPHPNIEEVALSSTGEIPFYGKAIPIETIKGGRHLIFCHSKKKCDELAAKLSGLGLNAVAYYRGLDVSVIPTSGDVIVVATDALMTGFTGDFDSVIDCNTCVTQTVDFSLDPTFTIETTTVPQDAVSRSQRRGRTGRGRMGIYRFVTPGERPSGMFDSSVLCECYDAGCAWYELTPAETSVRLRAYLNTPGLPVCQDHLEFWESVFTGLTHIDAHFLSQTKQAGDNFPYLVAYQATVCARAQAPPPSWDQMWKCLIRLKPTLHGPTPLLYRLGAVQNEVTTTHPITKYIMACMSADLEVVT
In the case of B1, the “amplitude of single turnover DNA unwinding (processivity)” value is reported as 0.35 ± 0.01 nM.

B2: NS3h KDA (D543K/H545D/Q549A mutant NS3 helicase) (protein)
chain: AVDFVPVESMETTMRSPVFTDNSSPPAVPQTFQVAHLHAPTGSGKSTKVPAAYAAQGYKVLVLNPSVAATLGFGAYMSKAHGIDPNIRTGVRTITTGAPITYSTYGKFLADGGCSGGAYDIIICDECHSTDSTTILGIGTVLDQAETAGARLVVLATATPPGSVTVPHPNIEEVALSSTGEIPFYGKAIPIETIKGGRHLIFCHSKKKCDELAAKLSGLGLNAVAYYRGLDVSVIPTSGDVIVVATDALMTGFTGDFDSVIDCNTCVTQTVDFSLDPTFTIETTTVPQDAVSRSQRRGRTGRGRMGIYRFVTPGERPSGMFDSSVLCECYDAGCAWYELTPAETSVRLRAYLNTPGLPVCQDHLEFWESVFTGLTHIKADFLSATKQAGDNFPYLVAYQATVCARAQAPPPSWDQMWKCLIRLKPTLHGPTPLLYRLGAVQNEVTTTHPITKYIMACMSADLEVVT
With B2 the “amplitude of single turnover DNA unwinding (processivity)” value was 0.21 ± 0.01 nM.
